Reference: patent US6835378B2, “Method and compositions for inhibiting thrombin-induced coagulation” (The Texas A&M University System University, priority 2001, dated 2004)
Entries after “also recorded” stand apart in the source; their conditions may differ.

Tested on: contortrixobin digestion of Fg
Assay: Fibrinopeptide B release by contortrixobin, HPLC
Format: biochemical, human
Conditions: 1:5 ratio of Fg to rSdrG(50-597) (1.5 μM), 60 min
Method: Superimposed chromatograms show the amount of fibrinopeptide released when the Fg-contortrixobin sample has no SdrG present (upper curve) and when the Fg-contortrixobin sample is incubated with 1.5 μM rSdrG(50-597) (lower curve) at the 60 min time point.
Analysis of Fibrinopeptide B Release by HPLC—As in chapter two, we monitored the fibrinopeptide release in the presence of SdrG and the β-fibrinogenase contortrixobin. The HPLC chromatograms shown in FIG. 10 show the expected fibrinopeptide release following digestion of Fg with contortrixobin superimposed with the fibrinopeptide release when Fg and contortrixobin are incubated with rSdrG(50-597). […] This is most likely because FpA is still intact on the Fg molecule, thus contortrixobin is not as effective at cleaving Fg due to steric hindrance from FpA.

B1: rSdrG(50-597): recombinant His-tagged A region (residues 50-597) of SdrG, a fibrinogen-binding MSCRAMM from S. epidermidis (protein)
chain: HHHHHHAEENTVQDVKDSNMDDELSDSNDQSSNEEKNDVINNSQSINTDDDNQIKKEETNSNDAIENRSKDITQSTTNVDENEATFLQKTPQDNTQLKEEVVKEPSSVESSNSSMDTAQQPSHTTINSEASIQTSDNEENSRVSDFANSKIIESNTESNKEENTIEQPNKVREDSITSQPSSYKNIDEKISNQDELLNLPINEYENKVRPLSTTSAQPSSKRVTVNQLAAEQGSNVNHLIKVTDQSITEGYDDSDGIIKAHDAENLIYDVTFEVDDKVKSGDTMTVNIDKNTVPSDLTDSFAIPKIKDNSGEIIATGTYDNTNKQITYTFTDYVDKYENIKAHLKLTSYIDKSKVPNNNTKLDVEYKTALSSVNKTITVEYQKPNENRTANLQSMFTNIDTKNHTVEQTIYINPLRYSAKETNVNISGNGDEGSTIIDDSTIIKVYKVGDNQNLPDSNRIYDYSEYEDVTNDDYAQLGNNNDVNINFGNIDSPYIIKVISKYDPNKDDYTTIQQTVTMQTTINEYTGEFRTASYDNTIAFSTSSGQGQGDLPPE
FpB release by contortrixobin: effectively inhibit FpB release; also recorded: decrease in the amount of FpB released | FpB release by contortrixobin (listed as rSdrG (50-597)): A decrease in the amount of FpB release
